Test results reported in patent US20060270596A1 (CENTRE NATIONAL DE LA RECHERCHE SCIENTIFIQUE CNRS, published 2006).

B1: human THAP1 (THanatos-Associated-Protein-1), full length (other)
chain: MVQSCSAYGCKNRYDKDKPVSFHKFPLTRPSLCKEWEAAVRRKNFKPTKYSSICSEHFTPDCFKRECNNKLLKENAVPTIFLCTEPHDKKEDLLEPQEQLPPPPLPPPVSQVDAAIGLLMPPLQTPVNLSVFCDHNYTVEDTMHQRKRIHQLEQQVEKLRKKLKTAQQRCRRQERQLEKLKEVVHFQKEKDDVSERGYVILPNDYFEIVEVPA
notes: these tags are not written into the chain; also called hTHAP1; THAP1 wild type
B3: GST-Par4DD fusion protein (Par4 amino acids 250-342) (other)
chain: GFPRYNRDANVSGTLVSSSTLEKKIEDLEKEVVTERQENLRLVRLMQDKEEMIGKLKEEIDLLNRDLDDIEDENEQLKQENKTLLKVVGQLTR
notes: Expressed in E. coli, immobilized on glutathione sepharose; not shown: glutathione S-transferase encoded by vector pGEX-2T (Amersham Pharmacia Biotech)

How the values were obtained:
[1] = molecular target: T1, GST (glutathione S-transferase) control protein (UniProt P08515 1-218 = GST); experiment: GST pull-down, negative control: in vitro translated 35S-labelled protein on GST alone immobilised on glutathione sepharose, SDS-PAGE, fluorography
T1 construct: Negative control in GST pull-down assays; also called GST beads; GST alone
T1 sequence (P08515 whole entry): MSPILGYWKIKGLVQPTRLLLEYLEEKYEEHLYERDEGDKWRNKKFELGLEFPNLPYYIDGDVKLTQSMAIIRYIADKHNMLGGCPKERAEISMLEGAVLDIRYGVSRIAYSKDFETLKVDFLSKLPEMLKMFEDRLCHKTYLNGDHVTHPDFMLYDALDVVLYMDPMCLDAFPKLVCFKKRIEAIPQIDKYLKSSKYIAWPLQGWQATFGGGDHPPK
Experimental: To confirm the interaction observed in yeast, we performed in vitro GST pull down assays. Par4DD, expressed as a GST-tagged fusion protein and immobilized on glutathione sepharose, was incubated with radiolabeled in vitro translated THAP1. To generate the GST-Par4DD expression vector, Par4DD (amino acids 250-342) was amplified by PCR with primers Par4.10 (5′-[…]-3′) (SEQ ID NO: 194) and Par4.5, and cloned in frame downstream of the Glutathion S-Transferase ORF, into the BamHI site of the pGEX-2T prokaryotic expression vector (Amersham Pharmacia Biotech, Saclay, France). GST-Par4DD (amino acids 250-342) fusion protein encoded by plasmid pGEX-2T-Par4DD and control GST protein encoded by plasmid pGEX-2T, were then expressed in E. coli DH5α and purified by affinity chromatography with glutathione sepharose according to supplier's instructions (Amersham Pharmacia Biotech). The yield of proteins used in GST pull-down assays was determined by SDS-Polyarylamide Gel Electrophoresis (PAGE) and Coomassie blue staining analysis. In vitro-translated THAP1 was generated with the TNT-coupled reticulocyte lysate system (Promega, Madison, Wis., USA) using pGBKT7-THAP1 vector as template. […]

[2] = molecular target: the molecule itself; experiment: yeast two-hybrid, THAP1 bait
[3] = molecular target: T2, Par4 deletion mutant lacking the leucine zipper/death domain (Par4Δ, amino acids 1-276) (human, UniProt Q96IZ0 1-274); experiment: yeast two-hybrid
T2 construct: Gal4 fusion in two-hybrid; also called Par4A; PAR4A
T2 sequence: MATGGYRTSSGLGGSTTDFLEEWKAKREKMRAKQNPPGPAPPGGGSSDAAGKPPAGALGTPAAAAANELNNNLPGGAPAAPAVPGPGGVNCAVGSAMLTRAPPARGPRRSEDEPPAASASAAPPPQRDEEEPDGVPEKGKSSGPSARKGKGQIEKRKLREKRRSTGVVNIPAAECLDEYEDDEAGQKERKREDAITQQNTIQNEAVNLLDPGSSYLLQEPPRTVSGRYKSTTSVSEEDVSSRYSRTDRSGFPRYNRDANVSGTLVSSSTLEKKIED

[4] = molecular target: B3; experiment: GST pull-down
[5] = molecular target: B1; experiment: yeast two-hybrid, THAP1 bait
[6] = molecular target: T3, human prostate apoptosis response-4 (PAR4), full length (human, UniProt Q96IZ0 1-340, limits assumed); experiment: yeast two-hybrid, Par4 wt bait
T3 construct: Gal4-BD or Gal4-AD fusion in two-hybrid; also called Par4 wild type
T3 chain: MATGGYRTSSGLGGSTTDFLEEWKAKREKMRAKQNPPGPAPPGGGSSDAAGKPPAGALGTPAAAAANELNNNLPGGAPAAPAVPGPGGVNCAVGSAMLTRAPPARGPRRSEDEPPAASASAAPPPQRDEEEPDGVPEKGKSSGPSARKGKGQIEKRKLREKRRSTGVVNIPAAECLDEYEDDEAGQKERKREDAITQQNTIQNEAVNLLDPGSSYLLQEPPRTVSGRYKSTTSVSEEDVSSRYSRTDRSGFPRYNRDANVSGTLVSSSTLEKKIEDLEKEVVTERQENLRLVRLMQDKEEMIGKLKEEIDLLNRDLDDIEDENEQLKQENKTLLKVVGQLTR
Experimental: for mutant THAP1ΔQRCRR. The resulting PCR fragments were digested with EcoRI and BamHI, and cloned in frame downstream of the Gal4 Binding Domain (Gal4-BD) in pGBKT7 two-hybrid vector (Clontech) to generate pGBKT7-THAP1-RR/AA and -Δ(QRCRR), or downstream of the Enhanced Green Fluorescent Protein (EGFP)ORF in pEGFP.C2 vector (Clontech) to generate pEGFP.C2-THAP1-RR/AA and -Δ(QRCRR). THAP1RR/AA and THAP1ΔQRCRR THAP1 mutants were then tested in the three THAP1/Par4 interaction assays (two-hybrid assay, in vitro THAP1/Par4 interaction assay, in vivo THAP1/Par4 interaction assay) as described above for the THAP1-C1, -C2, -C3, -N1, -N2 or -N3 mutants.

[7] = molecular target: T4, human chemokine SLC/CCL21, mature form (amino acids 24-134) (human, UniProt O00585 24-134); experiment: yeast two-hybrid, SLC/CCL21 bait
T4 construct: GenBank NP-002980; Used as Gal4 fusion in two-hybrid and as 35S-labelled in vitro translation product in pull-downs; also called SLC/6Ckine; SLC/CCL21 wild type
T4 sequence: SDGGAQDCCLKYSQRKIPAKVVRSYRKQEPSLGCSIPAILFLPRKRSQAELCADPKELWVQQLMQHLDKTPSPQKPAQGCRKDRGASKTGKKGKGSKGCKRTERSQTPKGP

[8] = molecular target: T5, Par4 leucine zipper/death domain (Par4DD, amino acids 250-342) (human, UniProt Q96IZ0 248-340); experiment: yeast two-hybrid and in vivo interaction assay
T5 construct: Gal4 fusion in two-hybrid; also called myc-Par4DD
T5 chain: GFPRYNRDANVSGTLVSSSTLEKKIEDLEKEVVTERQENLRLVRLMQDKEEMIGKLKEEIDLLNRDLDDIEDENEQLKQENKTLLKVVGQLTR

[9] = molecular target: T6, THAP1ΔQRCRR mutant (deletion of residues 168-172) (human, UniProt Q9NVV9 1-213); experiment: GST pull-down
T6 sequence: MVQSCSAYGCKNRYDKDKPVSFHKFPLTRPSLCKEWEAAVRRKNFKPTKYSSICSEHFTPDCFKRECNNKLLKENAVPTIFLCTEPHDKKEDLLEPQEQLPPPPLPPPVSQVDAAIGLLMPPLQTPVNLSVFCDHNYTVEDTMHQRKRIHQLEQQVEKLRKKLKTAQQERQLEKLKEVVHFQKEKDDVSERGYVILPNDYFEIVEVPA

[10] = molecular target: T7, THAP1-N2 deletion mutant (amino acids 1-166) (human, UniProt Q9NVV9 1-166); experiment: GST pull-down: in vitro translated 35S-labelled protein on GST-Par4DD immobilised on glutathione sepharose, SDS-PAGE, fluorography
T7 construct: Gal4 fusion, in vitro translation product or GFP fusion according to assay
T7 sequence: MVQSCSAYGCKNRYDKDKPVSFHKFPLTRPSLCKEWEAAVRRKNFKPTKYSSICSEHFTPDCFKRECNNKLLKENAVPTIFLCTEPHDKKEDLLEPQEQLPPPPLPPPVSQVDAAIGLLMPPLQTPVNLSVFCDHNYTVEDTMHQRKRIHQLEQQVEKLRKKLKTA
Experimental: (§1) THAP1 mutants were also tested in the in vitro THAP1/Par4 interaction assay. In vitro-translated THAP1 mutants were generated with the TNT-coupled reticulocyte lysate system (Promega, Madison, Wis., USA) using pGBKT7-THAP1-C1, -C2, -C3, -N1, -N2 or -N3 vector as template. 25 μl of each ³⁵S-labelled THAP1 mutant was incubated with immobilized GST or GST-Par4 protein overnight at 4° C., in the following binding buffer: 10 mM NaPO4 pH 8.0, 140 mM NaCl, 3 mM MgCl2, 1 mM dithiothreitol (DTT), 0.05% NP40, and 0.2 mM phenylmethyl sulphonyl fluoride (PMSF), 1 mM Na Vanadate, 50 mM β Glycerophosphate, 25 μg/ml chimotrypsine, 5 μg/ml aprotinin, 10 μg/ml Leupeptin. Beads were then washed 5 times in 1 ml binding buffer. Bound proteins were eluted with 2× Laemmli SDS-PAGE sample buffer, fractionated by 10% SDS-PAGE and visualized by fluorography using Amplify (Amersham Pharmacia Biotech). As expected, THAP1-C1, -C2, -C3, -and -N3 interacted with GST/Par4DD (FIG. 4B).

[11] = molecular target: T8, THAP1-N1 deletion mutant (amino acids 1-90) (human, UniProt Q9NVV9 1-90); experiment: as above
T8 construct: Gal4 fusion, in vitro translation product or GFP fusion according to assay; also called zinc finger domain of THAP1
T8 sequence: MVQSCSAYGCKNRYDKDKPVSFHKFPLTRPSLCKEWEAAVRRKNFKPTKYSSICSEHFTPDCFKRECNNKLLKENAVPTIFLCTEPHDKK
Experimental: as §1

Binder: B1
- binding result [1]: no binding
- binding result [2]: binds
- binding result [3]: no binding

B2: THAP1 RR/AA mutant (R171A, R172A) (other)
chain: MVQSCSAYGCKNRYDKDKPVSFHKFPLTRPSLCKEWEAAVRRKNFKPTKYSSICSEHFTPDCFKRECNNKLLKENAVPTIFLCTEPHDKKEDLLEPQEQLPPPPLPPPVSQVDAAIGLLMPPLQTPVNLSVFCDHNYTVEDTMHQRKRIHQLEQQVEKLRKKLKTAQQRCAAQERQLEKLKEVVHFQKEKDDVSERGYVILPNDYFEIVEVPA
notes: Gal4-BD fusion, in vitro translation product or GFP fusion according to assay; also called THAP RR/AA
- binding result [4]: no binding
- binding result [5]: binds
- binding result [6]: no binding
- binding result [7]: binds
- binding result [8]: no binding

Binder: B3
- binding result [9]: no binding
- binding result [10]: no binding
- binding result [11]: no binding
